# Source: paper PMC8719716
# How the values were obtained:
# Plk1 = Plk1 (UniProt P70032); assay: reciprocal co-IP of tagged proteins, embryo lysates; conditions: reference: wild type CEP97; sites S634,S643,S649,S653
# Plk1 PB1 and PB2 domains = Plk1 PB1 and PB2 domains (UniProt P70032); assay: as above; conditions: reference: wild type CEP97; sites S634,S643,S649,S653
substance,measurement,setting,value
"CEP97 (from UniProt Q6GPJ8) CEP97 SA (S634A, S643A, S649A, S653A)",binding against the reference,Plk1,weaker
same,binding against the reference,Plk1 PB1 and PB2 domains,lost
